# Measurements as given in the nanobody polyreactivity screen of Harvey et al. (2022).
# Assay: yeast display, Sf9 membrane polyspecificity reagent, FACS + sequencing; frameworks hold sequencing errors
# Method in brief: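 Using colony PCR, genes from sorted yeast display clones were amplified, then sequenced on MiSeq at 2 × 250 and filtered by CDR length. The clones had been stained with 10% biotinylated, detergent-solubilized Sf9 membrane reagent for 1 hour at 4 °C and sorted by FACS into low and high (top ~1%) gates on anti-HA and streptavidin fluorescence. Polyreactivity labels come from the gate of origin.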
row,Sequence,polyreactivity (PSR sort gate)
1,QVQLVESGGGLVQAGGSLRLSCAASGSIFRTNAMGWYRQAPGKERELVAAITGSGGSTYYADSVKGRFTISRDNAKNTVYLQMNSLKPVDTAVYYCAADGQLPPRGILASWEFDYWGQGTQVTVSS,low polyreactivity
2,QVQLVESGGGLVQAGGSLRLSCAASGSIFRTYAMGWYRQAHGKETELVAAITRSGGTTYYADSVKGRFTISRDNAKNTVYLQMNSLKPEDTAVYFCNAQGYWYKGRRRGDYWGQGTQVTVSS,high polyreactivity
3,QVQLVESGGGLVQAGGSLRLSCAASGSIFRVYAMGRYRQAPGKERELVATISGSAGRTYYADSVKGRFTISRDNAKNTVYLQMNSLKPEDTAVYYCAARWYKEYYWGQGTQVTVSS,high polyreactivity
4,QVQLVESGGGLVQAGGSLRLSCAASGSIFRVYAMGWYRQAPGKERELVAAISKSGSSTYYADSVKGRFTISRDNAKNTVYLQMNSLKPEDTAVYYCAARRVLGEYGYWGQGTQVTVSS,high polyreactivity
5,QVQLVESGGGLVQAGGSLRLSCAASGSIFRVYAMGWYRQAPGKERELVAAISWGGGTTYYADSVKGRFTISRDNAKNTVYLQMNSLKPEDTAVYYCNKVGVRSGARSIYVVRRYEYWGQGTQVTVSS,high polyreactivity
6,QVQLVESGGGLVQAGGSLRLSCAASGSIFRVYAMGWYRQAPGKERELVAAISWGRGTTYYADSVKGRFTISRDNAKNTVYLQMTSLKPEDTAVYYCAAGGVGAYDYWGQGTQVTVSS,high polyreactivity
7,QVQLVESGGGLVQAGGSLRLSCAASGSIFRWYAMGWYRKAPGKERELVARITVSGGSTYYADSVKGRFTISRDNAKNTVYLEMNSLKPEDTAVYYCNARAHYTPDGGGDYWGQGTQVTVSS,high polyreactivity
8,QVQLVESGGGLVQAGGSLRLSCAASGSIFRWYAMGWYRQAPGKEREFVAAISWSGTSTYYADSVKGRFTISRDNAKNTVYLQMNSLKPEDTAVYYCNALLPSSRAPDYGYWGQGTQVTVSS,high polyreactivity
9,QVQLVESGGGLVQAGGSLRLSCAASGSIFRWYAMGWYRQAPGKERELVAGISSTGGSTYYADSVKGRFTISRDNAKNTVYLQMNSLKPEDTAVLYCAVVSYPSAFRRYNYWGQGTQVTVSS,high polyreactivity
10,QVQLVESGGGLVQAGGSLRLSCAASGSIFRYNAMGWYRQAPGKDRELVAAISSGGSTKYADSVKGRFTISRDNAKNTVYLQMNSMKPEDTAVYFCVARRARYDYWGQGTQVTVSS,high polyreactivity
11,QVQLVESGGGLVQAGGSLRLSCAASGSIFRYNAMGWYRQAPGKERELVAAISSGGSTKYADSVKGRFTISRDNAKKTVYLQMNSLKPEDTAVYYCVARRARYDYWGQGTQVTVSS,high polyreactivity
12,QVQLVESGGGLVQAGGSLRLSCAASGSIFRYNAMGWYRQAPGKERELVAAITRSGGRTYYADSVKGRFTISRDNAKNTVYLQMNSLKPEDTAVYYCAAKGYTYGLTYDYWGQGTQVTVSS,high polyreactivity
13,QVQLVESGGGLVQAGGSLRLSCAASGSIFRYNAMGWYRQAPGKERELVAGITWGGGRTYYADSVKGRFTISRDNAKNTVYLQMNSLKPEDTAVYYCAAVIARPAVQAYLVTKYDYWGQGTQVTVSS,high polyreactivity
14,QVQLVESGGGLVQAGGSLRLSCAASGSIFRYYAMGWYRQAPGKEREFVAAINTNDAGTYYADSVKGRFTISRDNAKNTVYLQMNSLKPEDTAVYYCAADTGYPFWYDYWGQGTQVTVSS,high polyreactivity
15,QVQLVESGGGLVQAGGSLRLSCAASGSIFRYYAMGWYRQAPGKERELVAAIRWSGGSTYYADSVKGRFTISRDNAKNTVYLQMNSLKPEDTAVYYCAARVGYRGSRQYSSYTLVDYWGQGTQVTVSS,high polyreactivity
16,QVQLVESGGGLVQAGGSLRLSCAASGSIFRYYAMGWYRQAPGKERELVAAISSGTITNYADSVKGRFTISRDNAKNTVYLQMNSLKPEDTAVYYCAADTWYLGYPDYWLDYWGQGTQVTVSS,low polyreactivity
17,QVQLVESGGGLVQAGGSLRLSCAASGSIFRYYAMGWYRQAPGKERELVAAITGRGGSTYYADSVKGRFTISRDNAKNTVYLQMNSLKPEDTAVYYCADYIDANVHRFDYWGQGTQVTVSS,low polyreactivity
18,QVQLVESGGGLVQAGGSLRLSCAASGSIFRYYAMGWYRQAPGKERELVATISRDGGNTYYADSVKGRFTISRDNAKNTVYVQMNSLKPEDTAVYYCAKLGYRLSGYGYDYWGQGTQVTVSS,high polyreactivity
19,QVQLVESGGGLVQAGGSLRLSCAASGSIFRYYAMGWYRQAPGKERELVATITFNGGNTYYADSVKGRFTISRDNAKNTVYLQMNSLKPEDTAVYYCAATYVRRGPTRYYYWGQGTQVTVSS,high polyreactivity
20,QVQLVESGGGLVQAGGSLRLSCAASGSIFRYYAMGWYRQAPGKERELVATITSGGSTSYADSVKGRFTISRDNAKNTVYLQMNSLKPEDTAVYYCAKRSRHNKYYYWGQGTQVTVSS,high polyreactivity
21,QVQLVESGGGLVQAGGSLRLSCAASGSIFRYYAMGWYRQAPGKERELVAVITRGGSTYYADSVKGRFTISRDNAKNTVYLQMNRLKPEDTAVYYCAADFWPAGLDRGYWGQGTQVTVSS,low polyreactivity
22,QVQLVESGGGLVQAGGSLRLSCAASGSIFRYYAMGWYRQAPGKERELVAVITSSGTSTYYADSVKGRFTISRDNAKNTVYLQMNSLKPEDTAVYYCARRSSGELRYHIYDYWGQGTQVTLSS,low polyreactivity

row,Sequence,polyreactivity (PSR sort gate)
1,QVQLVESGGGLVQAGGSLRLSCAASGSIFRYYAMGWYRQAPGKESEFVASITYRGGRTYYADSVKGRFTISRDNAKNTVYLQMNSLKPEDTAVYYCAARTRAGAWTSKYHDYWGQGTQVTVSS,high polyreactivity
2,QVQLVESGGGLVQAGGSLRLSCAASGSIFRYYGMGWSRQAPGKERELVAAITWRGSSTYYADSVKGRFTISRDNAKNSVYLQMNSLNPEDTAVYYCAAYSASYGGYDYWGQGTQVTVSS,high polyreactivity
3,QVQLVESGGGLVQAGGSLRLSCAASGSIFRYYTMGWDRQAPGKERELVAAISWSGGRTYYADSVKGRFTISRDNAKNTVYLQMNSLKPEDTAVYYCAAVRPYYYPLPTVPNLPYDYWGQGTQVTVSS,high polyreactivity
4,QVQLVESGGGLVQAGGSLRLSCAASGSIFRYYTMGWYRQAPGKERELVAGINRGGRTYYADSVKGRYTISRDNAKNTVYLQMNSLKPEDTAVYYCAAVTYYGFDYWGQGTQVTVSS,high polyreactivity
5,QVQLVESGGGLVQAGGSLRLSCAASGSIFRYYVMGWYRQAPGKERELVAAISSGGRTYYADSVKGRFTISRDNAKNTVYLQMNSLKPEDTAVYYCAAGEPTRGDYWGQGTQVTVSS,high polyreactivity
6,QVQLVESGGGLVQAGGSLRLSCAASGSIFRYYVMGWYRQAPGKERELVAAISTGDRTNYADSVKGRFTISRDNAKNTVYLQMNILKPEDTAVYYCNADYVVGWARLEFNYWGQGTQVTVSS,low polyreactivity
7,QVQLVESGGGLVQAGGSLRLSCAASGSIFRYYVMGWYRQAPGKERELVAAITKSAGSTYYADSVKGRFTISRDNAKNTVYLQMNSLKPEDTAVYYCAARRVSRGNSKFDYYWGQGTQVTVSS,high polyreactivity
8,QVQLVESGGGLVQAGGSLRLSCAASGSIFRYYVMGWYRQAPGKERELVASITGSGGSTYYADSLKGRFTISRDNAKNTVYLQMNSLKPEDTAVYYCAASYRMRYGYWGQGTQVTVSS,high polyreactivity
9,QVQLVESGGGLVQAGGSLRLSCAASGSIFSDYALGWYRQAPGKERELVAAITQSGGSTYADSVKGRFTISRDNAKNTVYLQMNSLIPEDTAVYYCAADEVPGFGYPPYPWFDYWGQGTQVTVSS,low polyreactivity
10,QVQLVESGGGLVQAGGSLRLSCAASGSIFSENTRGWYRQAPGKERELVAAISWSGGSTNYADSVKGRFTISRDNAKNTVYLQMNSLKPEDTAVYYCFYWGQCTQVTVSS,low polyreactivity
11,QVQLVESGGGLVQAGGSLRLSCAASGSIFSFYAMGWYRPAPGKERELVAAISYRGGSTYYADSVKGRFTISRDNAKNTVYIQMNSLKPVDSAVSYCAAARFPVFIQGYRMEYWGQGTQVTVSS,low polyreactivity
12,QVQLVESGGGLVQAGGSLRLSCAASGSIFSFYAMGWYRQAPGKEMELVATISSGDNTNYADSVKGRFTISRDNAKNTVYLQMNSLKPEDNAVYYCAADAWGVDREYDYWGQGTQVTVSS,low polyreactivity
13,QVQLVESGGGLVQAGGSLRLSCAASGSIFSFYAMGWYRQAPGKERELVADITWSGGRTYYADSVKGRFTISRDNAKNTVYLQMNSLKPEDTAVYYCNTELYLSRYKYVWSFDYWGQGTQVTVSS,low polyreactivity
14,QVQLVESGGGLVQAGGSLRLSCAASGSIFSGNAMGWYRQAPGKERELVAAITSGGSTYYADSVKGRFTISRDNAKNTVYLQMNSLKPEDTAVYYCAAVWYQYYYDRRHDYWGQGTQVTVSS,low polyreactivity
15,QVQLVESGGGLVQAGGSLRLSCAASGSIFSGNEMAWYRQAPGKERELVAAISSNGGRTYYADSVKGRFTISRDNEKNTVYLQMNSLKPEDTAVDYCAADSGKRRYGYYYWGQATQVTVSS,high polyreactivity
16,QVQLVESGGGLVQAGGSLRLSCAASGSIFSGNTMGWYRQAPGKERELVAAISGGGSTNYADSVKGRFTISRDNAKNTVYLQMNSLKPEDTAVYYCAAEPDHVADSHSGYDYWGQGTQVTVSS,low polyreactivity
17,QVQLVESGGGLVQAGGSLRLSCAASGSIFSGYAMGWYRQAPGKERELVAAISRGGSTNYADSVKGRFTISRDNAKNTVYLQMNSLKPEDTAVYYCATTPTKYHYAFGYWGQGSQVTVSS,low polyreactivity
18,QVQLVESGGGLVQAGGSLRLSCAASGSIFSGYTMGWYRQAPGKDRELVAGISYRGGSTYYADSVKGRFTISRDNAKNTVYLQMNSLKPEDTAVYYCAALYYRRGSLNYEYWGQGTQVTVSS,high polyreactivity
19,QVQLVESGGGLVQAGGSLRLSCAASGSIFSGYTMGWYRQAPGKERELVAGISYRGGSTYYADSVKGRFTNSRDNAKNTVYLQMNSLKPEDTAVYYCAALYYRRGSLNYEYWGQGTQVTVSS,high polyreactivity
20,QVQLVESGGGLVQAGGSLRLSCAASGSIFSGYVMGWYRQAPGKERELVAAINSRAGRTYYADSVKGRFTISRDNAKNTVYLQMNSLKPEDTAVYYCNAPTSFHRGGGYWGQGTQVTVSS,high polyreactivity
21,QVQLVESGGGLVQAGGSLRLSCAASGSIFSGYVMGWYRQSPGKESELDAAISYSGGSKYYADSVKGRFTISRDNAKNTVYLQMNSLKPEDTAVYFCAAPGWLSQPRYRGYDYWGQGTQVSVSS,high polyreactivity
